Changes are numbered by the printed parent chain. Values belong to the binder of their own block, whether it stands above or below them.
Assays:
rNPR1-ANP complex [1] = target: T1, rNPR1-ANP complex (rat, UniProt P01160 124-151 (human entry), limits assumed); experiment: FabCys, parental value by Octet (table comment), as in Table 14
T1 construct: rNPR1 antigen in the presence of ANP; also called rNPR1 + 100 nM ANP
T1 sequence: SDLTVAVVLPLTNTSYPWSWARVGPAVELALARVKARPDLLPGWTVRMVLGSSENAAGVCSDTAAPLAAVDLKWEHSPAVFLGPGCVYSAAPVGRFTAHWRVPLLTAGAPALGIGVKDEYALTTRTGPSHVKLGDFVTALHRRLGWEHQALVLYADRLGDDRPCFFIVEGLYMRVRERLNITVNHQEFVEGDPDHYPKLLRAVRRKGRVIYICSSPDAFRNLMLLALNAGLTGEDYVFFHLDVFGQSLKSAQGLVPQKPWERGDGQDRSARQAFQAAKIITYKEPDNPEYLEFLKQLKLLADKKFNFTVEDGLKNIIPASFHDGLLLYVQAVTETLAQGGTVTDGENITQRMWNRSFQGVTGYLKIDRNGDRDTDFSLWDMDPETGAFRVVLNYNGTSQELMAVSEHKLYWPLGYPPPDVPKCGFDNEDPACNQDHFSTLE
T1 sequence (peptide): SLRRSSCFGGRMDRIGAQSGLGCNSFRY

hNPR1-ANP complex [2] = target: T2, hNPR1-ANP complex (human, UniProt P01160 124-151, limits assumed); experiment: as above
T2 construct: hNPR1 antigen in the presence of ANP; also called hNPR1 + 100 nM ANP
T2 sequence: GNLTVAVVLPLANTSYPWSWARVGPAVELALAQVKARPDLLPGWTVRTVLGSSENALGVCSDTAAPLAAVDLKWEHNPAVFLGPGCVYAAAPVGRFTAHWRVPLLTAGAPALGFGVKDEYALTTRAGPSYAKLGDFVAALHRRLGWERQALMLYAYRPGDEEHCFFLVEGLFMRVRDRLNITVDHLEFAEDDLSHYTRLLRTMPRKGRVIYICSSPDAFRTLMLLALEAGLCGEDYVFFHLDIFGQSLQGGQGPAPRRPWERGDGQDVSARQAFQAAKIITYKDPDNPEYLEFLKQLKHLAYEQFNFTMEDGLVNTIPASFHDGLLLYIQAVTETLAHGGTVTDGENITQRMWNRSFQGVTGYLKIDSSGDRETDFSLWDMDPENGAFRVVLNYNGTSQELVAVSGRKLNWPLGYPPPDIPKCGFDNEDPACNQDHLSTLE
T2 sequence (peptide): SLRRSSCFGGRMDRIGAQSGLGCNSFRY

rNPR1-ANP complex [3] = target: T1, rNPR1-ANP complex; experiment: Octet, FabCys; comment: Heterogenous binding
hNPR1-ANP complex [4] = target: T2, hNPR1-ANP complex; experiment: Octet, FabCys; comment: Heterogenous binding
rNPR1-ANP complex [5] = target: T1, rNPR1-ANP complex; experiment: FabCys affinity (Octet per Table 18 comment)
hNPR1-ANP complex [6] = target: T2, hNPR1-ANP complex; experiment: FabCys affinity (Octet per Table 18 comment)
[7] = target: T3, human NPR1 on CHO-K1 cells (human, UniProt P16066 33-1061); experiment: cell-based or functional assay
T3 sequence: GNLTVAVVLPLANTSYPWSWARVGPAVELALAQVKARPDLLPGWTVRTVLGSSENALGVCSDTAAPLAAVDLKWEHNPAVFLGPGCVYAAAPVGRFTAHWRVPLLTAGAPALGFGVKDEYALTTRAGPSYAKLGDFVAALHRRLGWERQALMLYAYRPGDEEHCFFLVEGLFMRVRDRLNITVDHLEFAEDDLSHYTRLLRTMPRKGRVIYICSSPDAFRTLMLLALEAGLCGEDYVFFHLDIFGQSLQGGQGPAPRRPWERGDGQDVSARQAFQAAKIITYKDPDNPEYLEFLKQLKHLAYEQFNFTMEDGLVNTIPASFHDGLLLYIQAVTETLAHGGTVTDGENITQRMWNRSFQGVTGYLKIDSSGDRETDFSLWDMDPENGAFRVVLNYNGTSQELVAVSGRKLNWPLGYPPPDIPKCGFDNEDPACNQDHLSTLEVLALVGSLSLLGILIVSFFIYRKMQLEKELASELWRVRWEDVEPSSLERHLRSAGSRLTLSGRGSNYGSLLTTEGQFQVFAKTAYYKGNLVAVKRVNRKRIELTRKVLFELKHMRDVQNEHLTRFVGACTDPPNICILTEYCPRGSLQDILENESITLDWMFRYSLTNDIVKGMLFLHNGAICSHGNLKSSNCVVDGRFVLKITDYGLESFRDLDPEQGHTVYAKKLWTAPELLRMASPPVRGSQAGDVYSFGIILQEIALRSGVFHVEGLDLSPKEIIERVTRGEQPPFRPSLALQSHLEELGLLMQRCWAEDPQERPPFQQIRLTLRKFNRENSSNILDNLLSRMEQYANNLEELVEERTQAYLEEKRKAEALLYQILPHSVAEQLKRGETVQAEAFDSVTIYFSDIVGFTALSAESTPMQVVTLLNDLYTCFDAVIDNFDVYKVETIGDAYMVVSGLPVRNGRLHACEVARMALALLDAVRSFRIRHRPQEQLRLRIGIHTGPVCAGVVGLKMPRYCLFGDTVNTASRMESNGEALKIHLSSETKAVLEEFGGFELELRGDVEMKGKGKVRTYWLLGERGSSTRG

hNPR1-ANP complex [8] = target: T2, hNPR1-ANP complex; experiment: FabCys, parental value as in Table 14 (no method comment)
[9] = target: T4, human Natriuretic Peptide Receptor 1 (hNPR1) (human, UniProt P16066 33-473, limits assumed); experiment: as above
T4 construct: pannings used NPR1-hFc; also called NPR1-hFc
T4 sequence: T2 sequence

hNPR1-ANP complex [10] = target: T2, hNPR1-ANP complex; experiment: FabCys affinity determination
[11] = target: T4, human Natriuretic Peptide Receptor 1 …; experiment: FabCys affinity determination
rat NPR1 (rNPR1) [12] = target: T5, rat NPR1 (rNPR1) (rat, UniProt P18910 29-469, limits assumed); experiment: FabCys affinity (Octet per Table 18 comment)
T5 construct: Soluble antigen
T5 sequence: T1 sequence

[13] = target: T4, human Natriuretic Peptide Receptor 1 …; experiment: FabCys affinity (Octet per Table 18 comment)
rNPR1-ANP complex [14] = target: T1, rNPR1-ANP complex; experiment: FabCys, parental value by Octet, assay limit reached (table comment), as in Table 14
hNPR1-ANP complex [15] = target: T2, hNPR1-ANP complex; experiment: as above
rat NPR1 (rNPR1) [16] = target: T5, rat NPR1 (rNPR1); experiment: as above
[17] = target: T4, human Natriuretic Peptide Receptor 1 …; experiment: as above
rNPR1-ANP complex [18] = target: T1, rNPR1-ANP complex; experiment: Octet, FabCys
hNPR1-ANP complex [19] = target: T2, hNPR1-ANP complex; experiment: Octet, FabCys
rat NPR1 (rNPR1) [20] = target: T5, rat NPR1 (rNPR1); experiment: Octet, FabCys
[21] = target: T4, human Natriuretic Peptide Receptor 1 …; experiment: Octet, FabCys
rat NPR1 (rNPR1) [22] = target: T5, rat NPR1 (rNPR1); experiment: FabCys, parental value by Octet (table comment), as in Table 14
[23] = target: T4, human Natriuretic Peptide Receptor 1 …; experiment: as above
[24] = target: T3, human NPR1 on CHO-K1 cells; experiment: flow cytometry, hNPR1 CHO-K1 cells, IgG
[25] = target: T6, human NPR1 on CHO-K1 cells in the presence of ANP (human, UniProt P01160 124-151); experiment: flow cytometry, hNPR1 CHO-K1 cells, IgG
T6 construct: also called hNPR1 CHO K1 + 100 nM ANP
T6 sequence: T3 sequence
T6 sequence (peptide): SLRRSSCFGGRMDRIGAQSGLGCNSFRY

[26] = target: T6, human NPR1 on CHO-K1 cells in the …; experiment: flow cytometry (FL2-H) on hNPR1 CHO-K1 cells with saturating ANP, IgG titrated; control parental CHO-K1 [panel WW01]
hNPR1-ANP complex [27] = target: T2, hNPR1-ANP complex; experiment: ELISA, IgG

Kd (rNPR1-ANP complex [1]): 14 nM
Kd (hNPR1-ANP complex [2]): 16 nM
Kd (rNPR1-ANP complex [3]): 8.8 nM
Kd (hNPR1-ANP complex [4]): 26 nM
Kd (rNPR1-ANP complex [5]): 14 nM
Kd (hNPR1-ANP complex [6]): 16 nM
cGMP conc [nM] at 1 µM FabCys, +0.075 nM ANP [7]: 46 nM
cGMP conc [nM] at 1 µM FabCys, without ANP [7]: 15 nM
B1: YY01 (FabCys format) (Fab, V domains shown)
VH: EVQLVESGGGLVQPGGSLRLSCAASGFTFSSYWISWVRQAPGKGLEWVANIKQSGSETYYVESVKGRFTISRDNAKNSLYLQMNSLRAEDTAVYYCARSLRRRSTEHAGFDVWGQGTLVTVSS
VL: DIQMTQSPSSLSASVGDRVTITCRASQGISNYLAWYQQKPGKVPKLLIYAASTLQSGVPSRFSGSGSGTDFTLTISSLQPEDVATYYCQQADKFPYTFGQGTKVEIK
notes: Monovalent FabCys

Kd (hNPR1-ANP complex [8]): 590 nM
Kd [9]: 1.8 nM
Kd (hNPR1-ANP complex [10]): 590 nM
Kd [11]: 1.8 nM
cGMP conc [nM] at 1 µM FabCys, +0.075 nM ANP [7]: 88 nM
cGMP conc [nM] at 1 µM FabCys, without ANP [7]: 77 nM
B2: YY07 (FabCys format) (Fab, V domains shown)
VH: EVQLVQSGAEVKKPGESLKISCKGSGYSFTSYWISWVRQMPGKGLEWMGIIYPGTSYTRYSPSFQGQVTISADKSISTAYLQWSSLKASDTAMYYCARGSLPGLLGFDHWGQGTLVTVSS
VL: QSVLTQPPSVSGAPGQRVTISCTGSSSNIGAGYDVHWYQQLPGTAPKLLIYGNSNRPNGVPDRFSGSKSGTSASLAITGLQAEDEADYYCQSYDSPTSSSVFGGGTKLTVL
notes: Monovalent FabCys

Kd (rNPR1-ANP complex [5]): 16000 nM
Kd (hNPR1-ANP complex [6]): 350 nM
Kd (rat NPR1 (rNPR1) [12]): 700 nM
Kd [13]: 0.9 nM
cGMP conc [nM] at 1 µM FabCys, +0.075 nM ANP [7]: 227 nM
cGMP conc [nM] at 1 µM FabCys, without ANP [7]: 207 nM
Kd (rNPR1-ANP complex [14]): 16000 nM
Kd (hNPR1-ANP complex [15]): 350 nM
Kd (rat NPR1 (rNPR1) [16]): 700 nM
Kd [17]: 0.9 nM
B3: YY05 (FabCys format) (Fab, V domains shown)
VH: B2 VH with S100A, L101V, P102A, L104Q
VL: B2 VL with N58S, D94Y, S95T, P96S, T97S, S98H, S99G, S100P
notes: Monovalent FabCys

Kd (rNPR1-ANP complex [18]): 38 nM
Kd (hNPR1-ANP complex [19]): 0.8 nM
Kd (rat NPR1 (rNPR1) [20]): 100 nM
Kd [21]: 0.62 nM
Kd (rNPR1-ANP complex [1]): 1400 nM
Kd (hNPR1-ANP complex [2]): 1 nM
Kd (rat NPR1 (rNPR1) [22]): 1600 nM
Kd [23]: 0.5 nM
Kd (rNPR1-ANP complex [5]): 1400 nM
Kd (hNPR1-ANP complex [6]): 1 nM
Kd (rat NPR1 (rNPR1) [12]): 1600 nM
Kd [13]: 0.5 nM
cGMP conc [nM] at 1 µM FabCys, +0.075 nM ANP [7]: 75 nM
cGMP conc [nM] at 1 µM FabCys, without ANP [7]: 20 nM
B4: YY06 (FabCys format) (Fab, V domains shown)
VH: EVQLLESGGGLVQPGGSLRLSCAASGFTFSSYAISWVRQAPGKGLEWVSAISGSGGSTYYAESVKGRFTISRDNSKNTLYLQMNSLRAEDTAVYYCARPYLGDRRSYGFDHWGQGTLVTVSS
VL: QSALTQPASVSGSPGQSITISCTGTSSDVGSYNLVSWYQQHPGKAPKLMIYEGSKRPSGVSNRFSGSKSGNTASLTISGLQAEDEADYYCSSYGFHIVVVVFGGGTKLTVL
notes: Monovalent FabCys

flow cytometry S/BG at 2 µM IgG [24]: 19.9 S/BG
flow cytometry S/BG at 2 µM IgG [25]: 222 S/BG
EC50 (read off the curve) [26]: ~3 nM
EC50 (hNPR1-ANP complex [27]): 1 nM
B5: WW01 (IgG format) (antibody, V domains shown)
VH: QVQLLESGGGLVQPGGSLRLSCAASGFTFNTHYIHWVRQAPGKGLEWVSSISGSGSNTYYADSVKGRFTISRDNSKNTLYLQMNSLRAEDTAVYYCARERGYVYYHMFDPWGQGTLVTVSS
VL: DIVLTQSPATLSLSPGERATLSCRASQSITRNYLAWYQQKPGQAPRLLIYGASSRATGIPARFSGSGSGTDFTLTISSLEPEDFAVYYCQQHSMYPRTFGQGTKVEIKR
notes: also called WW01_LALA
